Measurements from US20260209347A1 (BIORAY PHARMACEUTICAL, published 2026).

Assays:
[1] = molecular target: T1, human NKG2A/CD94 on cells (CHOK1-hNKG2A/CD94) (human, UniProt P26715 1-233; Q13241 1-179); assay: FACS on CHOK1-hNKG2A/CD94 cells
T1 construct: whole, on cells; the killing assays (functional rows) used NK92 cells or primary human NK cells that carry the receptor; also called human NKG2A overexpressing cells; human NKG2A overexpressing cell line
Method: (§1) Human NKG2A overexpressing cells (CHOK1-hNKG2A/CD94), cyno NKG2A overexpressing cells (CHOK1-cynoNKG2A/CD94), and human NKG2C overexpressing cells (CHOK1-hNKG2C/CD94) were digested with TrypLE (purchased from Gibco). Cells were collected by centrifugation, then resuspended to 2E6/mL with FACS buffer (PBS+2% FBS). The cells were added to a 96-well cell plate at 100 μL per well, and the supernatant was discarded after centrifugation. The antibody was gradiently diluted with FACS buffer (initial concentration of 200 nM, 5-fold dilution, including point 0, a total of 10 concentration points), added to the cells at 100 μL/well, mixed, and incubated at 4° C. for 1 hour. The incubated cells were centrifuged at 300 g for 5 min and washed twice with FACS buffer. Secondary antibody, anti-human IgG fluorescent secondary antibody 488 (purchased from Thermofisher A-11013), was added, incubated at 4° C. for one hour, then the cells were washed twice with FACS buffer, resuspended in PBS and analyzed by FACS instrument.

[2] = molecular target: T2, human NKG2C/CD94 on cells (CHOK1-hNKG2C/CD94) (human, UniProt P26717 1-231; Q13241 1-179); assay: FACS on CHOK1-hNKG2C/CD94 cells
T2 construct: whole, on cells; also called human NKG2C overexpressing cells; human NKG2C overexpressing cell line
Method: as §1

[3] = molecular target: T1, human NKG2A/CD94 on cells …; assay: cell-based or functional assay
[4] = molecular target: T1, human NKG2A/CD94 on cells …; assay: FACS on human NKG2A overexpressing cell line
Method: as §1
The binding activity of humanized antibodies to human NKG2A overexpressing cell line was detected by FACS (refer to Example 4 for FACS). The maximum MFIs of cAb-43 and its humanized mutant antibodies to human NKG2A overexpressing cell line were greater than that of the Z270 control antibody.

T1 sequence (P26715 whole entry, chain 1 of 2): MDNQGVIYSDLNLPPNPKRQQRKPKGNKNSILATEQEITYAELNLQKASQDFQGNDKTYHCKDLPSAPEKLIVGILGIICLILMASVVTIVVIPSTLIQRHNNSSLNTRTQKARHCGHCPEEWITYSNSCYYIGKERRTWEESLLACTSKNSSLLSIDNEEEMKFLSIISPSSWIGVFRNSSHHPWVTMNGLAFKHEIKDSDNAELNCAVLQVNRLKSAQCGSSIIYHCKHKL
T1 sequence (Q13241 whole entry, chain 2 of 2): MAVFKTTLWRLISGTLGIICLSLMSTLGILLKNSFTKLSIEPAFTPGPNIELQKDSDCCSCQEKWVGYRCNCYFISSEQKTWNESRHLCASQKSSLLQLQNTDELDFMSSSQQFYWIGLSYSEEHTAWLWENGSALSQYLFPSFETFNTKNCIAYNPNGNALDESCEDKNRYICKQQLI
T2 sequence (P26717 whole entry, chain 1 of 2): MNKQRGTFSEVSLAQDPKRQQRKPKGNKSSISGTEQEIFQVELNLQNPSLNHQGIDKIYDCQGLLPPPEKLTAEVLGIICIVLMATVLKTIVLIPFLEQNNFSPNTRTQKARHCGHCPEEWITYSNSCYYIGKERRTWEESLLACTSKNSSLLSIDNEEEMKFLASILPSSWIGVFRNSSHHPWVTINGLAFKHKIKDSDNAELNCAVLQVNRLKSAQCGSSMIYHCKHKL
T2 sequence (Q13241 whole entry, chain 2 of 2): as the sequence (Q13241 whole entry, chain 2 of 2) above

Binder | binding result [1] | Maximum MFI [4] [MFI] | binding result [2] | IC50 (nM), killing of LCL721.221 target cells by NK92 cells [3] [nM]
cAb-9 (antibody, human IgG4 S228P, kappa, V domains shown, human-mouse chimeric antibody, human IgG4 constant region; also called antibody number 9; NKG2A chimeric antibody) VH: EVQLQQSVAELVRPGASVKLSCTASGFNIQNTYMHWVKERPEQGLEWIGRIDPANGDTEFAPKFQGKATLTTDTSSNTAYLQLSSLTSEDTAIYYCGRERYFYGSRGFAYWGQGTLVTVSA VL: DILMTQSPPSMSVSLGDTVSITCHASQGISSNIGWLQQKPGKSFKGLIYHGTNLEDGVPSRFSGSGSGADYSLTISSLESEDFADYYCVQYAQFPWTFGGGTKLEIKR | binds | – | no binding (tested: initial concentration of 200 nM) | –
cAb-17 (antibody, human IgG4 S228P, kappa, V domains shown, human-mouse chimeric antibody, human IgG4 constant region; also called antibody number 17; NKG2A chimeric antibody) VH: EVQLQQSVAELVRPGASVKLSCTASGFNIKNTYIDWVKQRPEQGLEWIGNIDPANGNTKYAPKFQGKATITADTSSNTAYVQLSSLTSEDTAIYYCARWGGWDVRFAYWGQGTLVTVSA VL: DIKMTQSPSSMYASLGERVTITCKASQDINTYLSWFQQKPGKSPKTLIYRANRLVDGVPSRFSGSGSGQNYSLTISSLEYEDMGIYYCLQYDEFPLTFGAGTKLELKR | binds | – | no binding (tested: initial concentration of 200 nM) | –
cAb-24 (antibody, human IgG4 S228P, kappa, V domains shown, human-mouse chimeric antibody, human IgG4 constant region; also called antibody number 24; NKG2A chimeric antibody) VH: EVQLQQSVAELVRPGASVKLSCTASGFNIQNTYMHWVKQRPEQGLEWIGRIDPANGNTKYAPKFQGKATITADTSSNTAYLQLSSLTSEDTAIYYCARYYDSRYGYWGQGTTLTVSS VL: DIKMTQSPSSMYASLGERVTITCKASQDINSYLSWFQQKPGKSPTTLIYRANRLVDGVPSRFSGSGSGQDYSLTISSLEYEDLGIYFCLQYDEFPWTFGGGTKLEIKR | binds | – | no binding (tested: initial concentration of 200 nM) | –

The next lines start with results.

binding result [1] | Maximum MFI [4] [MFI] | Binder | binding result [2] | IC50 (nM), killing of LCL721.221 target cells by NK92 cells [3] [nM]
binds | – | cAb-33 (antibody, human IgG4 S228P, kappa, V domains shown, human-mouse chimeric antibody, human IgG4 constant region; also called antibody number 33; NKG2A chimeric antibody) VH: EVQLQQSVAELVRPGASVKLSCTASGFNIKNTYMDWVKQRPEQGLEWIGRIDPANGNTKYAPKFQGKATITADTSSNTAYLQLSSLTSEDTAIYYCAREGNWDDWFVYWGQGTLVTVSA VL: DVLMTQTPLSLPVSLGDQASISCRSSQSIVHSNGNTYLEWFLQKPGQSPKLLIYKVSNRFSGVPDRFSGSGSGTDFTLKISRVEAEDLGVYYCFQGSHVPPTFGGGTKLEIKR | no binding (tested: initial concentration of 200 nM) | –
binds | – | cAb-35 (antibody, human IgG4 S228P, kappa, V domains shown, human-mouse chimeric antibody, human IgG4 constant region; also called antibody number 35; NKG2A chimeric antibody) VH: EVQLQQSVAELVRPGASVKLSCTASGFNIKNTYMDWVKQRPEQGLEWIGRIDPANGNTKHAPKFQGKATITTDTSSNTAYLQLSSLTSEDTAIYYCARWGGWDVRFAYWGQGTLVTVSA VL: DIKMTQSPSSMYASLGERVTINCQASQDINSYLSWFQQKPGKSPKTLIHRANRLVDGVPSRFSGSGSGQDYSLTISSLEYEDMGIYYCLQFDEFPLTFGAGTKLELKR | no binding (tested: initial concentration of 200 nM) | –
binds | – | cAb-14 (antibody, human IgG4 S228P, kappa, V domains shown, human-mouse chimeric antibody, human IgG4 constant region; also called antibody number 14; NKG2A chimeric antibody) VH: EVQLQQSVAELVRPGASVKLSCTASGFNIKNTYIHWVKQRPEQGLEWIGRIDPANGNTKYAPKFQGKASIIVDTSSNTAYLQLSSLTSEDTAIYYCARYYASSPYYYNMDYWGQGTSVTVSS VL: DIQMTQSPASLSVSVGETVTITCRASENIYSNLAWYQQKQGKSPQLLVYAATNLADGVPSRFSGSGSGTQYSLKINSLQSEDFGSYYCQHFWGTFTFGSGTKLEIKR | no binding (tested: initial concentration of 200 nM) | –
– | 18800 | cAb-52 (antibody, human IgG4 S228P, kappa, V domains shown, human-mouse chimeric antibody, human IgG4 constant region; also called antibody number 52; NKG2A chimeric antibody) VH: EVQLQQSVAELVRPGASVKLSCTASGFNIQNTYLHWVKQRPEQGLEWIGRIDPANDNIKYVPKFQGKATITADTSSNTAYLQLSSLTSEDTAIYYCTRHGLFYEGWFAYWGQGTLVTVST VL: EIVLTQSPALMAASPGEKVTITCSVSSSISSSNLHWYQQKSGTSPKPWIYGTSNLASGVPVRFSGSGSGTSYSLTISSMEAEDAATYYCQQWSSYPYTFGSGTKLEIKR | no binding (tested: initial concentration of 200 nM) | 0.28
